Key:
[1] = molecular target: MspA-((Del-L74/G75/D118/L119)D56F/E59R/L88N/D90N/D91N/Q126R/D134R/E139K)8
[2] = molecular target: MspA-((Del-L74/G75/D118/L119)G1A/D56N/E59F/L88N/D90N/D91N/Q126R/D134R/E139K)8

B1: T4 Dda-E94C/C109A/C136A/K199L/A360C (protein)
chain: MTFDDLTEGQKNAFNIVMKAIKEKKHHVTINGPAGTGKTTLTKFIIEALISTGETGIILAAPTHAAKKILSKLSGKEASTIHSILKINPVTYECNVLFEQKEVPDLAKARVLICDEVSMYDRKLFKILLSTIPPWATIIGIGDNKQIRPVDPGENTAYISPFFTHKDFYQCELTEVKRSNAPIIDVATDVRNGKWIYDLVVDGHGVRGFTGDTALRDFMVNYFSIVKSLDDLFENRVMAFTNKSVDKLNSIIRKKIFETDKDFIVGEIIVMQEPLFKTYKIDGKPVSEIIFNNGQLVRIIEAEYTSTFVKARGVPGEYLIRHWDLTVETYGDDEYYREKIKIISSDEELYKFNLFLGKTCETYKNWNKGGKAPWSDFWDAKSQFSKVKALPASTFHKAQGMSVDRAFIYTPCIHYADVELAQQLLYVGVTRGRYDVFYV
slips forward per kilobase [1]: less than 5 slips forward per kilobase
% bases missed in construct X [2]: the lowest % bases missed in construct X
slips forward per kilobase [2]: less than 5 slips forward per kilobase

From patent US20240060126
